Paper PMC11480477, “STIC2 selectively binds ribosome-nascent chain complexes in the cotranslational sorting of Arabidopsis thylakoid proteins” (The EMBO Journal, 2024)
Where a chain is given by its changes, count along the chain named.

T1: GST-STIC2 E112A (A. thaliana, UniProt O82230 49-182, E112A)
T1 construct: STIC2 of A. thaliana, mature protein aa 49–182, in pGEX4T3; source: E. coli Rosetta2 (DE3) or BL21 (DE3), purified (glutathione sepharose); not shown: GST, N-terminal, kept
T1 sequence (looked up): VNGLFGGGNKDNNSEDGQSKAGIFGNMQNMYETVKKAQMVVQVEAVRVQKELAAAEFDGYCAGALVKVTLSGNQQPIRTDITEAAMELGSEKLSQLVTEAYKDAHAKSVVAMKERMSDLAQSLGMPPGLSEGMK

T2: GST-STIC2 E112A K115A (A. thaliana, UniProt O82230 49-182, E112A | K115A)
T2 construct: STIC2 of A. thaliana, mature protein aa 49–182, in pGEX4T3; also called STIC2 E112A K115A double mutant; source: E. coli Rosetta2 (DE3) or BL21 (DE3), purified (glutathione sepharose); not shown: GST, N-terminal, kept
T2 sequence (looked up): T1 sequence (looked up) with K67A

T3: GST-STIC2 E131G (A. thaliana, UniProt O82230 49-182, E131G)
T3 construct: STIC2 of A. thaliana, mature protein aa 49–182, in pGEX4T3; The results speak only of E131; source: E. coli Rosetta2 (DE3) or BL21 (DE3), purified (glutathione sepharose); not shown: GST, N-terminal, kept
T3 sequence (looked up): T1 sequence (looked up) with A64E, E83G

T4: Alb4C-His R410G (UniProt Q9FYL3 334-499, R410G)
T4 construct: Alb4, C-terminal region aa 334–499, in pET29b; source: E. coli Rosetta2 (DE3) or BL21 (DE3), purified (HisTrap HP); not shown: His tag, C-terminal, kept
T4 sequence (looked up): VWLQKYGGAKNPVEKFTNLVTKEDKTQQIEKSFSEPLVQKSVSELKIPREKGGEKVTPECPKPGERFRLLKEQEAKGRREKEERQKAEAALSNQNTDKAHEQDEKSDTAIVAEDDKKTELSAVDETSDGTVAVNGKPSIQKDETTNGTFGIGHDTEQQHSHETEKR

T5: Alb4C-His R399G (UniProt Q9FYL3 334-499, R399G)
T5 construct: Alb4, C-terminal region aa 334–499, in pET29b; source: E. coli Rosetta2 (DE3) or BL21 (DE3), purified (HisTrap HP); not shown: His tag, C-terminal, kept
T5 sequence (looked up): T4 sequence (looked up) with R66G, G77R

T6: Alb4C-His F400G (UniProt Q9FYL3 334-499, F400G)
T6 construct: Alb4, C-terminal region aa 334–499, in pET29b; source: E. coli Rosetta2 (DE3) or BL21 (DE3), purified (HisTrap HP); not shown: His tag, C-terminal, kept
T6 sequence (looked up): T4 sequence (looked up) with F67G, G77R

T7: Alb4C-His E407G (UniProt Q9FYL3 334-499, E407G)
T7 construct: Alb4, C-terminal region aa 334–499, in pET29b; source: E. coli Rosetta2 (DE3) or BL21 (DE3), purified (HisTrap HP); not shown: His tag, C-terminal, kept
T7 sequence (looked up): T4 sequence (looked up) with E74G, G77R

T8: Alb4C-His (aa 334–499) (UniProt Q9FYL3 334-499)
T8 construct: Alb4, stromal C-terminal region aa 334–499, in pET29b; also called C-terminal region of Alb4; source: E. coli Rosetta2 (DE3) or BL21 (DE3), purified (HisTrap HP); not shown: His tag, C-terminal, kept
T8 sequence (looked up): T4 sequence (looked up) with G77R

B1: Alb3C-His (aa 350–462) (domain or fragment, UniProt Q8LBP4 350-462, looked up)
chain: VYLRKLGGAKPNMDENASKIISAGRAKRSIAQPDDAGERFRQLKEQEKRSKKNKAVAKDTVELVEESQSESEEGSDDEEEEAREGALASSTTSKPLPEVGQRRSKRSKRKRTV
notes: Alb3, stromal C-terminal region aa 350–462, in pET29b; also called C-terminal region of Alb3; source: E. coli Rosetta2 (DE3) or BL21 (DE3), purified (HisTrap HP); not shown: His tag, C-terminal, kept
B2: Alb4 peptide aa 394–408 (15mer pepspot) (peptide, UniProt Q9FYL3 394-408, looked up)
peptide: PKPGERFRLLKEQEA
notes: largely Motif III; source: synthetic peptide, spot on a membrane (JPT Peptide Technologies)
B3: Alb3 peptide aa 386–400 (15mer pepspot) (peptide, UniProt Q8LBP4 386-400, looked up)
peptide: GERFRQLKEQEKRSK
notes: as for B2
B4: GST-STIC2 (natural protein, A. thaliana, UniProt O82230 49-182, looked up)
chain: T1 sequence (looked up) with A64E
notes: STIC2 of A. thaliana, mature protein aa 49–182, in pGEX4T3; also called pGEX4T3-GST-STIC2; source: E. coli Rosetta2 (DE3) or BL21 (DE3), purified (glutathione sepharose); not shown: GST, N-terminal, kept
B5: His-STIC2 (mature STIC2, aa 49–182) (natural protein, A. thaliana, UniProt O82230 49-182, looked up)
chain: T1 sequence (looked up) with A64E
notes: STIC2 of A. thaliana, mature protein aa 49–182 (transit peptide predicted with TargetP), in pET-Duet1; The N-terminal place of the tag is read from the printed name His-STIC2; also called recombinant mature His-STIC2; suppressor of tic40 protein 2; source: E. coli Rosetta2 (DE3) or BL21 (DE3), purified (HisTrap HP, native conditions); not shown: His tag, N-terminal, kept
B6: GST-STIC2 K115A (natural protein, A. thaliana, UniProt O82230 49-182, looked up)
chain: T1 sequence (looked up) with A64E, K67A
notes: STIC2 of A. thaliana, mature protein aa 49–182, in pGEX4T3; source: E. coli Rosetta2 (DE3) or BL21 (DE3), purified (glutathione sepharose); not shown: GST, N-terminal, kept

How the values were obtained:
Conditions in all cases: both partners purified
GST-STIC2 E112A = target: T1, GST-STIC2 E112A; test: pull-down; 20 µg GST-STIC2 variants with 20 µg Alb3C-His in PBS with 160 mM NaCl, 120 µl, room temperature; glutathione sepharose; eluates by immunoblot, coelution quantified with ImageJ
GST-STIC2 E112A K115A = target: T2, GST-STIC2 E112A K115A; test: as above
GST-STIC2 E131G = target: T3, GST-STIC2 E131G; test: as above
[1] = target: B5; test: ITC; His-STIC2 titrated (1.5 mM into 0.15 mM Alb3C-His or Alb3CΔIII-His; 1 mM into 0.1 mM Alb4C-His or Alb4CΔIII-His); 20 mM HEPES, 150 mM NaCl, pH 8.0, 25 °C; one-site binding model; two to five independent experiments
[2] = target: B5; test: peptide or protein array; pepspot membranes with 15mer peptides of Alb3 (aa 155–208, 282–462) and Alb4 (aa 139–192, 266–499); His-STIC2 5 µg/ml for 3 h at room temperature, TBST washes, detection with anti-His HRP conjugate
Alb4C-His R410G = target: T4, Alb4C-His R410G; test: pull-down; 20 µg GST-STIC2 variants with 20 µg Alb4C-His variants in PBS, 120 µl, room temperature; glutathione sepharose; eluates by immunoblot, coelution quantified with ImageJ
Alb4C-His R399G = target: T5, Alb4C-His R399G; test: as above
Alb4C-His F400G = target: T6, Alb4C-His F400G; test: as above
Alb4C-His E407G = target: T7, Alb4C-His E407G; test: as above
Alb4C-His (aa 334–499) [3] = target: T8, Alb4C-His (aa 334–499); test: ITC; His-STIC2 titrated (1.5 mM into 0.15 mM Alb3C-His or Alb3CΔIII-His; 1 mM into 0.1 mM Alb4C-His or Alb4CΔIII-His); 20 mM HEPES, 150 mM NaCl, pH 8.0, 25 °C; one-site binding model; two to five independent experiments
Alb4C-His (aa 334–499) [4] = target: T8, Alb4C-His (aa 334–499); test: pull-down; 20 µg GST-STIC2 variants with 20 µg Alb4C-His variants in PBS, 120 µl, room temperature; glutathione sepharose; eluates by immunoblot, coelution quantified with ImageJ

Binder: B1
percent reduction of binding against GST-STIC2 (GST-STIC2 E112A): ~15%
percent reduction of binding against GST-STIC2 (GST-STIC2 E112A K115A): ~80%
percent reduction of binding against GST-STIC2 (GST-STIC2 E131G): ~80%
Kd [1]: 150 µM

Binder: B2
binding result [2]: binds

Binder: B3
binding result [2]: binds

Binder: B4
binding result (Alb4C-His R410G): binds
binding result (Alb4C-His R399G): binds
binding result (Alb4C-His F400G): binds
binding result (Alb4C-His E407G): binds

Binder: B5
Kd (Alb4C-His (aa 334–499) [3]): 17 µM

Binder: B6
binding result (Alb4C-His (aa 334–499) [4]): binds
